This passage reports stoichiometry N (CaMs per channel tetramer) results from article PMC6241251.

The target of this test is human SK4 (small-conductance Ca2+-activated K+ channel), full-length (human) (UniProt O15554). Put plainly: cryo-EM structure.
UniProt O15554, sequence (O15554 whole entry): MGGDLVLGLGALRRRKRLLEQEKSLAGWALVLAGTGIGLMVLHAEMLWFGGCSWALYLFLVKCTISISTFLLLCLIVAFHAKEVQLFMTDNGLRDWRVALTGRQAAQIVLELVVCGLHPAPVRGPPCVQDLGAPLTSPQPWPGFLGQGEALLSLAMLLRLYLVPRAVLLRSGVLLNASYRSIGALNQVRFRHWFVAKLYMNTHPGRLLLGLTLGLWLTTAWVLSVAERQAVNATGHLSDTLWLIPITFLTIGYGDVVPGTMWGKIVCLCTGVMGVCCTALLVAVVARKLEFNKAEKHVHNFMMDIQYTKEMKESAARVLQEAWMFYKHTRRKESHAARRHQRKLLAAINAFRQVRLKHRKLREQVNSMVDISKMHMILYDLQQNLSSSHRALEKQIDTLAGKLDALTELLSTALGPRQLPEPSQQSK

Consider “calmodulin (from UniProt P0DP23 1-149) (natural protein; other documents disagree on this pair)”, for which the stoichiometry N (CaMs per channel tetramer) was 4.
